System: Ba/F3-gp130 cells
Assay: Proliferation of Ba/F3-gp130 cells with 10 ng/ml IL-6 plus recombinant sIL-6R or ds-sIL-6R (IL-6 trans-signaling), Cell Titer Blue
Format: cell-based
Details: 0-100 ng/ml with 10 ng/ml IL-6, 48 h
From the text: Fig 1 The majority of sIL-6R in human serum is not generated by alternative mRNA splicing. (A) Multiple sequence alignment of amino acids Met-310 to Ala-370 of the full-length human IL-6R with the sIL-6R (Met-310 to Gln-357) and amino acids Met-310 to Leu-365 of the differentially spliced sIL-6R (ds-sIL-6R). The ten unique C-terminal amino-acid residues of the […], which represent the epitope against which the antibody ds6R was raised, are colored in green. (B, C) Proliferation assay of Ba/F3-gp130 cells in response to 10 ng/ml IL-6 and increasing amounts (0–100 ng/ml) of either (B) recombinant sIL-6R or (C) recombinant ds-sIL-6R. Cell viability was assessed after 48 h. […]
Proliferation of the different Ba/F3-gp130-IL-6R cell lines in response to IL-6 and Hyper-IL-6 and of Ba/F3-gp130 cells in response to IL-6 and the two different recombinant sIL-6R variants was determined using the Cell Titer Blue Cell viability assay reagent (Promega, Karlsruhe, Germany), following the manufacturer’s protocol as described previously. Values were measured in triplicates per experiment, and relative light units (RLU) obtained after 60 min were normalized by subtraction of control values obtained after 0 min. The maximum proliferation was set to 100%, and all other values were calculated accordingly.

B1: sIL-6R: recombinant soluble IL-6 receptor expressed in HEK293-EBNA cells (protein, UniProt P08887 20-365, looked up)
extracellular domain: LAPRRCPAQEVARGVLTSLPGDSVTLTCPGVEPEDNATVHWVLRKPAAGSHPSRWAGMGRRLLLRSVQLHDSGNYSCYRAGRPAGTVHLLVDVPPEEPQLSCFRKSPLSNVVCEWGPRSTPSLTTKAVLLVRKFQNSPAEDFQEPCQYSQESQKFSCQLAVPEGDSSFYIVSMCVASSVGSKFSKTQTFQGCGILQPDPPANITVTAVARNPRWLSVTWQDPHSWNSSFYRLRFELRYRAERSKTFTTWMVKDLQHHCVIHDAWSGLRHVVQLRAQEEFGQGEWSEWSPEAMGTPWTESRSPPAENEVSTPMQALTTNKDDDNILFRDSANATSLPVQDSSSVPLP
modifications: extracellular domain recombinant
notes: recombinant soluble IL-6 receptor expressed in HEK293-EBNA cells
IL-6 trans-signaling activity, in words: biologically active

Reference: publication PMC5218472 (PLoS Biology, 2017)
